The data set has as its system RcnR (Salmonella enterica serovar Typhimurium SL1344 (100% sequence identity to E. coli RcnR)). The data set is described as follows: fluorescence anisotropy. As to conditions: Ni(II), 1:1 NiII:RcnR tetramer; 10 nM DNA, 60 mM NaCl, 240 mM KCl, 10 mM HEPES pH 7.5, 25 C, anaerobic, Chelex-treated N2-purged buffers; apo-RcnR Kd 1.5e-7 M is from earlier work (ref 39).

By Kd is commonly meant the concentration at which binding is half-saturated.

For the substance rcnRA operator-promoter, the Kd is 3.09 µM.
